Consider 2 molecules from article PMC10113255, “PHF14 enhances DNA methylation of SMAD7 gene to promote TGF-β-driven lung adenocarcinoma metastasis”.

For this data set, the target named is T1, PHF14 ePHD domain WT (Homo sapiens, UniProt O94880 382-499).
T1 sequence: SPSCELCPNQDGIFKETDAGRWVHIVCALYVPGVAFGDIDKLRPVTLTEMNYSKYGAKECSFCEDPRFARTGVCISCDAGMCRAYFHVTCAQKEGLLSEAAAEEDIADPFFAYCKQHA
Put plainly: SPR; protein immobilized on CM5; SPR: HBS-P (10 mM HEPES pH 7.4, 150 mM NaCl, 0.05% P20), 25 °C, 1:1 Langmuir fit; EMSA: LightShift kit protocol, 0.5x TBE native PAGE, buffer not stated. The note with it: protein: recombinant; tags: His (EMSA, purification method); FLAG (SPR); label: biotin (EMSA); blunt.

B1: CG-rich probe, unmethylated (dsDNA)
DNA 1: ACGGCTCGTCGCTACGGCTCGTCGCT
DNA 2: AGCGACGAGCCGTAGCGACGAGCCGT
One may read the Kd as the equilibrium constant for the complex coming apart. In the case of B1, the dissociation constant (Kd) is 36 nM.

B2: AT-rich probe (dsDNA)
DNA 1: CATTAGATGATAGCATTAGATGATAG
DNA 2: CTATCATCTAATGCTATCATCTAATG
Consider B2, for which the dissociation constant (Kd) turned out to be 230 nM.
